The record followed here is patent US20220025056A1.

Experiment [1] concerns the target human ILT2 (LILRB1) expressed at the surface of transfected cells (human) (UniProt Q8NHL6). Description: flow cytometry, CHO-ILT2 cells. In general terms: Flow cytometry measures light scatter and fluorescence of single cells or particles in a stream.
The target of experiment [2] is ILT-2_6xHis recombinant protein (human) (UniProt Q8NHL6). In words: Octet BLI, antibody on anti-mouse Fc sensor, soluble ILT2 analyte. For orientation: In BLI a coated tip is dipped into the sample, and binding shifts an interference pattern.
ILT-2_6xHis recombinant protein (human), sequence (Q8NHL6 other isoform, or with tags, fused parts or gaps limits assumed): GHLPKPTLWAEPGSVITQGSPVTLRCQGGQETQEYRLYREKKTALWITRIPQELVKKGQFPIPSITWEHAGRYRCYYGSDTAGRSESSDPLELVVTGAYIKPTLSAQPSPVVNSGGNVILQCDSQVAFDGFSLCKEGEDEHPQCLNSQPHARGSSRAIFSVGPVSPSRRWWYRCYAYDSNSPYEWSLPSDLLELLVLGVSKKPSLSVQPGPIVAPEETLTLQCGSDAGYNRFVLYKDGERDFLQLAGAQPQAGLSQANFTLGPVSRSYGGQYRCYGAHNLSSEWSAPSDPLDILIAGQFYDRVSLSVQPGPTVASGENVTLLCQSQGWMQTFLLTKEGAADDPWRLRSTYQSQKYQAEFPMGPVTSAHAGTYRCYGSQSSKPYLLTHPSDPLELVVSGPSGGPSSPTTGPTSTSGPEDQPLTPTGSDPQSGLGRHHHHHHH

Usually EC50 stands for the concentration that produces a half-maximal response. By Kd is commonly meant the constant that tells how readily two partners part at equilibrium. In general, koff refers to a measure of how fast the partners let go of each other. As a reminder, the kon is the second-order rate constant of association.

human ILT2 (LILRB1) expressed at the surface of transfected cells (human), sequence (Q8NHL6 24-650): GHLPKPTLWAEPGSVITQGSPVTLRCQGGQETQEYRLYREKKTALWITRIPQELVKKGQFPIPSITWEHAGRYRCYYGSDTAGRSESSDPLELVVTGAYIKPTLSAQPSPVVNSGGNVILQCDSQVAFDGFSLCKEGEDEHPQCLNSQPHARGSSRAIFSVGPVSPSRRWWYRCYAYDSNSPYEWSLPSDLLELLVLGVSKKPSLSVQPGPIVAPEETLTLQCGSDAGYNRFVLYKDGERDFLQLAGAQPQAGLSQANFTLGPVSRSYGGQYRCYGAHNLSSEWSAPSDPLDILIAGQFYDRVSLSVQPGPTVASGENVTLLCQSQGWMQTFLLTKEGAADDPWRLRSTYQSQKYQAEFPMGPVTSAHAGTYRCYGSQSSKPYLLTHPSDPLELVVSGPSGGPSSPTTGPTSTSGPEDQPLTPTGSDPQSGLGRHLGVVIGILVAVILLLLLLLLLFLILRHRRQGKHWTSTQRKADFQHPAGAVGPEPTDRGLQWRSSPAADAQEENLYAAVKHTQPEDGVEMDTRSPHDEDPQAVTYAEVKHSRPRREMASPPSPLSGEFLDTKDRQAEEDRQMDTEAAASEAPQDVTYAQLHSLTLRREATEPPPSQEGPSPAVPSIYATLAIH

For GHI/75 (antibody), in experiment [1], the EC50 came to 5.39 µg/mL. In experiment [2], the Kd worked out at 28.1 nM, the koff was found to be 0.00038 s⁻¹ and the kon amounted to 13000 M⁻¹ s⁻¹.
